From the supplement of paper PMC11316812
± gives the standard deviation of the averaged measurements.

Key:
[1] = tested on: MCF7; experiment: percentage of EdU-negative (G0-arrested) nuclei per well, 72 h; higher = more G0 arrest; conditions: reference: sequence is the full UniProt precursor, the tested protein was the secreted form or ectodomain
[2] = tested on: hTERT-HMEC; experiment: as above; conditions: reference: sequence is the full UniProt precursor, the tested protein was the secreted form or ectodomain
[3] = protein concentration 0.02025 µM
[4] = protein concentration 0.2025 µM
[5] = protein concentration 0.0225 µM
[6] = protein concentration 0.00575 µM
[7] = protein concentration 0.0575 µM
[8] = protein concentration 0.0085 µM
[9] = protein concentration 0.007735 µM
[10] = protein concentration 0.07735 µM
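Note: secreted proteins added to cultured cells, EdU pulse at the end, nuclei found by Hoechst imaging, EdU status from nuclear versus surrounding ring intensity ratio, PBS as neutral control.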

MVRLAAELLLLLGLLLLTLHITVLRGSGAADGPDAAAGNASQAQLQNNLNVGSDTTSETSFSLSKEAPREHLDHQAAHQPFPRPRFRQETGHPSLQRDFPRSFLLDLPNFPDLSKADINGQNPNIQVTIEVVDGPDSEADKDQHPENKPSWSVPSPDWRAWWQRSLSLARANSGDQDYKYDSTSDDSNFLNPPRGWDHTAPGHRTFETKDQPEYDSTDGEGDWSLWSVCSVTCGNGNQKRTRSCGYACTATESRTCDRPNCPGIEDTFRTAATEVSLLAGSEEFNATKLFEVDTDSCERWMSCKSEFLKKYMHKVMNDLPSCPCSYPTEVAYSTADIFDRIKRKDFRWKDASGPKEKLEIYKPTARYCIRSMLSLESTTLAAQHCCYGDNMQLITRGKGAGTPNLISTEFSAELHYKVDVLPWIICKGDWSRYNEARPPNNGQKCTESPSDEDYIKQFQEAREY [B1AKI9]
percentage of EdU-negative [1, 3]: 25.3 ± 2.1% | percentage of EdU-negative [1, 4]: 24.1 ± 0.87% | percentage of EdU-negative [2, 3]: 4.82 ± 0.37% | percentage of EdU-negative [2, 4]: 5.13 ± 0.59%

MVRMVPVLLSLLLLLGPAVPQENQDGRYSLTYIYTGLSKHVEDVPAFQALGSLNDLQFFRYNSKDRKSQPMGLWRQVEGMEDWKQDSQLQKAREDIFMETLKDIVEYYNDSNGSHVLQGRFGCEIENNRSSGAFWKYYYDGKDYIEFNKEIPAWVPFDPAAQITKQKWEAEPVYVQRAKAYLEEECPATLRKYLKYSKNILDRQDPPSVVVTSHQAPGEKKKLKCLAYDFYPGKIDVHWTRAGEVQEPELRGDVLHNGNGTYQSWVVVAVPPQDTAPYSCHVQHSSLAQPLVVPWEAS
percentage of EdU-negative [1, 5]: 26.1 ± 2% | percentage of EdU-negative ([1]; protein concentration 0.225 µM): 26.1 ± 1.9% | percentage of EdU-negative [2, 5]: 5.49 ± 0.45% | percentage of EdU-negative ([2]; protein concentration 0.225 µM): 5.19 ± 0.89%

MVRPMLLLSLGLLAGLLPALAACPQNCHCHSDLQHVICDKVGLQKIPKVSEKTKLLNLQRNNFPVLAANSFRAMPNLVSLHLQHCQIREVAAGAFRGLKQLIYLYLSHNDIRVLRAGAFDDLTELTYLYLDHNKVTELPRGLLSPLVNLFILQLNNNKIRELRAGAFQGAKDLRWLYLSENALSSLQPGALDDVENLAKFHVDRNQLSSYPSAALSKLRVVEELKLSHNPLKSIPDNAFQSFGRYLETLWLDNTNLEKFSDGAFLGVTTLKHVHLENNRLNQLPSNFPFDSLETLALTNNPWKCTCQLRGLRRWLEAKASRPDATCASPAKFKGQHIRDTDAFRSCKFPTKRSKKAGRH
percentage of EdU-negative [1, 6]: 26.1 ± 0.54% | percentage of EdU-negative [1, 7]: 29 ± 0.99% | percentage of EdU-negative [2, 6]: 5.33 ± 0.1% | percentage of EdU-negative [2, 7]: 7.33 ± 0.97%

MVSALRGAPLIRVHSSPVSSPSVSGPRRLVSCLSSQSSALSQSGGGSTSAAGIEARSRALRRRWCPAGIMLLALVCLLSCLLPSSEAKLYGRCELARVLHDFGLDGYRGYSLADWVCLAYFTSGFNAAALDYEADGSTNNGIFQINSRRWCSNLTPNVPNVCRMYCSDLLNPNLKDTVICAMKITQEPQGLGYWEAWRHHCQGKDLTEWVDGCDF [Q8IXA5]
percentage of EdU-negative [1, 5]: 23.7 ± 1.4% | percentage of EdU-negative ([1]; protein concentration 0.225 µM): 23.6 ± 2.9% | percentage of EdU-negative [2, 5]: 4.64 ± 0.051% | percentage of EdU-negative ([2]; protein concentration 0.225 µM): 10 ± 1.4%

MVSQALRLLCLLLGLQGCLAAGGVAKASGGETRDMPWKPGPHRVFVTQEEAHGVLHRRRRANAFLEELRPGSLERECKEEQCSFEEAREIFKDAERTKLFWISYSDGDQCASSPCQNGGSCKDQLQSYICFCLPAFEGRNCETHKDDQLICVNENGGCEQYCSDHTGTKRSCRCHEGYSLLADGVSCTPTVEYPCGKIPILEKRNASKPQGRIVGGKVCPKGECPWQVLLLVNGAQLCGGTLINTIWVVSAAHCFDKIKNWRNLIAVLGEHDLSEHDGDEQSRRVAQVIIPSTYVPGTTNHDIALLRLHQPVVLTDHVVPLCLPERTFSERTLAFVRFSLVSGWGQLLDRGATALELMVLNVPRLMTQDCLQQSRKVGDSPNITEYMFCAGYSDGSKDSCKGDSGGPHATHYRGTWYLTGIVSWGQGCATVGHFGVYTRVSQYIEWLQKLMRSEPRPGVLLRAPFP
percentage of EdU-negative [1, 8]: 24.3 ± 4.2% | percentage of EdU-negative ([1]; protein concentration 0.085 µM): 24.2 ± 0.32% | percentage of EdU-negative [2, 8]: 4.77 ± 0.36% | percentage of EdU-negative ([2]; protein concentration 0.085 µM): 5.93 ± 1.7%

MVSRMVSTMLSGLLFWLASGWTPAFAYSPRTPDRVSEADIQRLLHGVMEQLGIARPRVEYPAHQAMNLVGPQSIEGGAHEGLQHLGPFGNIPNIVAELTGDNIPKDFSEDQGYPDPPNPCPVGKTADDGCLENTPDTAEFSREFQLHQHLFDPEHDYPGLGKWNKKLLYEKMKGGERRKRRSVNPYLQGQRLDNVVAKKSVPHFSDEDKDPE
percentage of EdU-negative [1, 5]: 26.6 ± 1.8% | percentage of EdU-negative ([1]; protein concentration 0.225 µM): 25.7 ± 2.2% | percentage of EdU-negative [2, 5]: 5.414 ± 0.019% | percentage of EdU-negative ([2]; protein concentration 0.225 µM): 5.28 ± 0.35%

MVSYWDTGVLLCALLSCLLLTGSSSGSKLKDPELSLKGTQHIMQAGQTLHLQCRGEAAHKWSLPEMVSKESERLSITKSACGRNGKQFCSTLTLNTAQANHTGFYSCKYLAVPTSKKKETESAIYIFISDTGRPFVEMYSEIPEIIHMTEGRELVIPCRVTSPNITVTLKKFPLDTLIPDGKRIIWDSRKGFIISNATYKEIGLLTCEATVNGHLYKTNYLTHRQTNTIIDVQISTPRPVKLLRGHTLVLNCTATTPLNTRVQMTWSYPDEKNKRASVRRRIDQSNSHANIFYSVLTIDKMQNKDKGLYTCRVRSGPSFKSVNTSVHIYDKAFITVKHRKQQVLETVAGKRSYRLSMKVKAFPSPEVVWLKDGLPATEKSARYLTRGYSLIIKDVTEEDAGNYTILLSIKQSNVFKNLTATLIVNVKPQIYEKAVSSFPDPALYPLGSRQILTCTAYGIPQPTIKWFWHPCNHNHSEARCDFCSNNEESFILDADSNMGNRIESITQRMAIIEGKNKMASTLVVADSRISGIYICIASNKVGTVGRNISFYITDVPNGFHVNLEKMPTEGEDLKLSCTVNKFLYRDVTWILLRTVNNRTMHYSISKQKMAITKEHSITLNLTIMNVSLQDSGTYACRARNVYTGEEILQKKEITIRDQEAPYLLRNLSDHTVAISSSTTLDCHANGVPEPQITWFKNNHKIQQEPGIILGPGSSTLFIERVTEEDEGVYHCKATNQKGSVESSAYLTVQGTSDKSNLELITLTCTCVAATLFWLLLTLFIRKMKRSSSEIKTDYLSIIMDPDEVPLDEQCERLPYDASKWEFARERLKLGKSLGRGAFGKVVQASAFGIKKSPTCRTVAVKMLKEGATASEYKALMTELKILTHIGHHLNVVNLLGACTKQGGPLMVIVEYCKYGNLSNYLKSKRDLFFLNKDAALHMEPKKEKMEPGLEQGKKPRLDSVTSSESFASSGFQEDKSLSDVEEEEDSDGFYKEPITMEDLISYSFQVARGMEFLSSRKCIHRDLAARNILLSENNVVKICDFGLARDIYKNPDYVRKGDTRLPLKWMAPESIFDKIYSTKSDVWSYGVLLWEIFSLGGSPYPGVQMDEDFCSRLREGMRMRAPEYSTPEIYQIMLDCWHRDPKERPRFAELVEKLGDLLQANVQQDGKDYIPINAILTGNSGFTYSTPAFSEDFFKESISAPKFNSGSSDDVRYVNAFKFMSLERIKTFEELLPNATSMFDDYQGDSSTLLASPMLKRFTWTDSKPKASLKIDLRVTSKSKESGLSDVSRPSFCHSSCGHVSEGKRRFTYDHAELERKIACCSPPPDYNSVVLYSTPPI
percentage of EdU-negative [1, 9]: 26.6 ± 3% | percentage of EdU-negative [1, 10]: 28.1 ± 1.6% | percentage of EdU-negative [2, 9]: 4.97 ± 0.54% | percentage of EdU-negative [2, 10]: 5.7 ± 0.039%
